Data set [1] deals with FLAG-DEP1 (rice (Oryza sativa)) (UniProt Q67UU9).
Another data set addresses T1, SP3 (Dof15) (Oryza sativa).
T1 chain: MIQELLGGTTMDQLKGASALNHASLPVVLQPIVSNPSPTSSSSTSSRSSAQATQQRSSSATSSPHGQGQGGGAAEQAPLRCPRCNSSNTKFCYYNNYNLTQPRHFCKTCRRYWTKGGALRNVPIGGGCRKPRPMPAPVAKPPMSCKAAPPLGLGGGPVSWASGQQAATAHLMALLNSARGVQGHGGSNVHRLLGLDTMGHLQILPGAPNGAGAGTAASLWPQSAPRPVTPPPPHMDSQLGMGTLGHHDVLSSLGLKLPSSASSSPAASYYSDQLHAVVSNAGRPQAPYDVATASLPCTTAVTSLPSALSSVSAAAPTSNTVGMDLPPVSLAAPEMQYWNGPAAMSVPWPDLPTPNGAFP
Put plainly: EMSA; LightShift Chemiluminescent EMSA Kit (Thermo), manufacturer's instructions; buffer, salt, pH and temperature not stated. Conditions: protein: recombinant; tags: GST (pGEX-6p); label: biotin; blunt.

The next data set addresses T2, DEP1 (Oryza sativa, UniProt Q67UU9 1-426).
T2 sequence: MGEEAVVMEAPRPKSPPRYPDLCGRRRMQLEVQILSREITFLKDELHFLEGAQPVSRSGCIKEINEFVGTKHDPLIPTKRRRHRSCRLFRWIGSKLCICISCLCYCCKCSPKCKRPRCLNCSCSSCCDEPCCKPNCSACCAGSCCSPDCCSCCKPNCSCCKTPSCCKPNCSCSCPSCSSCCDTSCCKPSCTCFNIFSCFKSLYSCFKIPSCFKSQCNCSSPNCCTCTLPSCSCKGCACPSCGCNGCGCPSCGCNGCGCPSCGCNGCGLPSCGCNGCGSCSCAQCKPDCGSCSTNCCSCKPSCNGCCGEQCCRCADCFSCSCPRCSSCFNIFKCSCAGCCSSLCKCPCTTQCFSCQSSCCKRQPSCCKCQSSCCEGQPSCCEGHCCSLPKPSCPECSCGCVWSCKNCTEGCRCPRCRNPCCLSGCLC
The data set is described as above. Conditions: protein: recombinant; tags: MBP; label: biotin; blunt.

In data set [1], HA-SP3 (natural protein) registered a share of DEP1-GFP signals localised to the nucleus in rice protoplasts: 16% without SP3, 76% with SP3-HA co-expressed of 76%.

B1: Bio-Probe (APO2 promoter) (dsDNA)
DNA 1: ACGCATGCAGGAGTATCTTTTTTCTTCGGAAGAGGAACAGTGAC
DNA 2: GTCACTGTTCCTCTTCCGAAGAAAAAAGATACTCCTGCATGCGT
Take B1: the binding result with SP3 (Dof15) is recorded as “binds”; with DEP1, “no binding”.

Source of the values: publication PMC12667520, “SP3 and DEP1 Orchestrate Panicle Architecture by Jointly Regulating APO2 Expression in Rice”.
